Assay results taken from doi:10.1101/2025.08.29.672660.

Target: HdpA^S-LEHHHHHH (HdpA devoid of its N-terminal hydrophobic segment, His-tagged) (Helicobacter pylori strain 26695)
Assay: crystal structure

- stoichiometry N: 1
Substance: LhiA^S-SAHHHHHH (LhiA devoid of its predicted signal peptide and lipidated cysteine, His-tagged) (natural protein)
